Measurements reported in patent US20170107569, “METHOD FOR ATTACHING ONE OR MORE POLYNUCLEOTIDE BINDING PROTEINS TO A TARGET POLYNUCLEOTIDE” (Oxford Nanopore Technologies Ltd., published 2017).

Key:
[1] = target: T1, T4 Dda-E94C/C109A/C136A/A360C helicase (UniProt P32270 SEQ:1-439, E94C/C109A/C136A/A360C); assay: EMSA; native TBE PAGE; 50 mM HEPES, 100 mM KOAc pH 8, 1 mM EDTA, 100 uM TMAD; 2:1 and 1:1 complexes, single enzyme after KCl/ATP and SPRI; conditions: tags: closed with TMAD; Y-adapter, partly double-stranded
T1 sequence: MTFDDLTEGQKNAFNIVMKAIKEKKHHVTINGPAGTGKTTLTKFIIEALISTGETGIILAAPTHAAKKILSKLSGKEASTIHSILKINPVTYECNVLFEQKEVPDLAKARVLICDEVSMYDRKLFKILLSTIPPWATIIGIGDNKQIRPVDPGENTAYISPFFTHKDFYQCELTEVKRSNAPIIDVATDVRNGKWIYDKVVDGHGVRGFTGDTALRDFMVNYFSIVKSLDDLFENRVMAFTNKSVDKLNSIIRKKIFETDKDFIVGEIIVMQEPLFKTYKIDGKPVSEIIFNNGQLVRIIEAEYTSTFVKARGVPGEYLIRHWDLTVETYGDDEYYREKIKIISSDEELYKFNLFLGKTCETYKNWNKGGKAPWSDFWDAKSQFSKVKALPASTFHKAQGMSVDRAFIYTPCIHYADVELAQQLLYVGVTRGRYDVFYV
Protocol: T4 Dda—E94C/C109A/C136A/A360C (3 μM, SEQ ID NO: 24 with mutations E94C/C109A/C136A/A360C) and DNA Y-adapter (500 nM, SEQ ID NO: 26 was hybridised to DNA strand X=30 iSpC3 spacers attached at the 3′ end to the 5′ end SEQ ID NO: 27 which is attached at the 3′ end to 4 iSp18 spacers which are attached at the opposite end to the 5′ end of SEQ ID NO: 28) were mixed in buffer (50 mM HEPES, 100 mM KOAc (pH 8) and EDTA (1 mM) and TMAD (100 μM) were added and incubated for 60 minutes at room temperature. The mixture was then diluted 1:1 in KCl/ATP solution (500 mM KCl, 1 mM ATP final) and incubated at ambient temperature for 25 mins, this mixture was known as sample 3.
The resultant enzyme bound to DNA was then analysed using a TBE PAGE gel as described previously in Example 1 except the gel was run for 45 mins.

[2] = target: T1, T4 Dda-E94C/C109A/C136A/A360C helicase; assay: EMSA; native TBE PAGE, band C; conditions: tags: closed with TMAD; Y-adapter, partly double-stranded
Protocol: Each sample run on the gel was 400 nM (5 μL). Lane 1 corresponded to a 100 bp ladder (the number of base pairs that the bands correspond to is shown along the side of the gel). Lane 2 corresponded to helicase leader complex shown in FIG. 12A, without the helicase bound. Lane 3 corresponded to the helicase leader complex shown in FIG. 12A with the helicase bound. Lane 4 corresponded to the polymerase strand complex shown in FIG. 12B without the polymerase bound. Lane 5 corresponded to the polymerase strand complex shown in FIG. 12B with the polymerase bound. Band A corresponded to SEQ ID NO: 43. Band B corresponded to DNA strand X=30 iSpC3 spacers attached at the 3′ end to the 5′ end SEQ ID NO: 27 which is attached at the 3′ end to 4 iSp18 spacers which are attached at the opposite end to the 5′ end of SEQ ID NO: 28. Band C corresponded to the helicase (T4 Dda—E94C/C109A/C136A/A360C) bound to DNA strand X. Band D corresponded to the polymerase strand complex without the enzyme bound (SEQ ID NO: 44 which was attached at its 3′ end to four iSpC3 spacers which were attached at the opposite end to the 5′ end of SEQ ID NO: 45). Band E corresponded to Phi29-A411C/Q560C bound to the polymerase strand complex.
The helicase-leader complex (diagram shown in FIG. 12 section A) was prepared as described in Example 2, except SEQ ID NO: 26 is replaced with SEQ ID NO: 43.

Row | Binder | binding result [1] | binding result [2]
1 | DNA Y-adapter (Example 2) (mixed, 30 iSpC3 at 5' end of SEQ 27; 4 iSp18 between SEQ 27 and SEQ 28; 5' phosphate on SEQ 26) DNA 1: TTTTTTTTTTTTGGTTGTTTCTGTTGGTGCTGATATTGCGGCGTCTGCTTGGGTGTTTAACCT DNA 2: GGTTAAACACCCAAGCAGACGCCGCAATATCAGCACCAACAGAAACAACCTTTGAGGCGAGCGGTCAA | binds | –
2 | helicase-leader Y-adapter (Example 7) (mixed, 30 iSpC3 at 5' end of SEQ 27; 4 iSp18 between SEQ 27 and SEQ 28) DNA 1: TTTTTTTTTTTTGGTTGTTTCTGTTGGTGCTGATATTGCGGCGTCTGCTTGGGTGTTTAACCT DNA 2: GCAATATCAGCACCAACAGAAACAACCTTTGAGGCGAGCGGTCAA | – | binds
